According to patent US20150037328A1 (Pfizer, published 2015):
Substitutions are numbered along the chain they refer to. Names and notes keep the numbering of the source.

B1: humanized anti-CXCR4 antibody h3G10.1.91.A58B (antibody, V domains shown)
VH: EVQLVESGGGLVQPGGSLRLSCAASGFTFSDYYMSWVRQAPGKGLEWVGFIRHKANFETTEYSTSVKGRFTISRDDSKNSLYLQMNSLKTEDTAVYYCARDLPGFAYWGQGTLVTVSS
VL: DIVMTQSPDSLAVSLGERATINCKSSQSLFNSHTRKNYLAWYQQKPGQPPKLLIYWASARGSGVPDRFSGSGSGTDFTLTISSLQAEDVAVYYCKQSFNLRTFGGGTKVEIK
notes: Whole antibody (detected with an anti-human IgG Fc gamma specific second antibody); also called h3G10.1.91 VH / h3G10.A58B VL; CXCR4 Ab h3G10.1.91.A58B
B2: humanized anti-CXCR4 antibody h3G10.A57.A58A (antibody, V domains shown)
VH: B1 VH with E58Y
VL: B1 VL with N99R
B3: humanized anti-CXCR4 antibody h3G10.2.37.2.72 (antibody, V domains shown)
VH: B1 VH with E58Y, T60R
VL: B1 VL with H33R, G61E, N99R
B4: humanized anti-CXCR4 antibody h3G10 (antibody, V domains shown)
VH: B1 VH with F57G, E58Y
VL: B1 VL with H33R, G61E
B5: humanized anti-CXCR4 antibody h3G10.1.91.A58A (antibody, V domains shown)
VH: B1 VH
VL: B1 VL with N99R
B6: humanized anti-CXCR4 antibody h3G10.A57 (antibody, V domains shown)
VH: B1 VH with E58Y
VL: B1 VL with H33R, G61E
B7: h3G10.1.91 VH / h3G10.2.72 VL Fab (Fab, V domains shown)
VH: B1 VH
VL: B1 VL with H33R, G61E, N99R
notes: Tested as Fab
B8: h3G10 VH / h3G10 VL Fab (Fab, V domains shown)
VH: B1 VH with F57G, E58Y
VL: B1 VL with H33R, G61E
notes: Tested as Fab; also called h3G10 Fab
B9: h3G10.2.37 VH / h3G10.2.72 VL Fab (Fab, V domains shown)
VH: B1 VH with E58Y, T60R
VL: B1 VL with H33R, G61E, N99R
notes: Tested as Fab
B10: h3G10.A57 VH / h3G10 VL Fab (Fab, V domains shown)
VH: B1 VH with E58Y
VL: B1 VL with H33R, G61E
notes: Tested as Fab; also called h3G10.A57 VH / h3G10 L

What follows are binders tested against T1, human CXCR4 (chemokine (C-X-C motif) receptor 4) (human, UniProt P61073 1-352) (assay: cell-based or functional assay).
T1 sequence (P61073 whole entry): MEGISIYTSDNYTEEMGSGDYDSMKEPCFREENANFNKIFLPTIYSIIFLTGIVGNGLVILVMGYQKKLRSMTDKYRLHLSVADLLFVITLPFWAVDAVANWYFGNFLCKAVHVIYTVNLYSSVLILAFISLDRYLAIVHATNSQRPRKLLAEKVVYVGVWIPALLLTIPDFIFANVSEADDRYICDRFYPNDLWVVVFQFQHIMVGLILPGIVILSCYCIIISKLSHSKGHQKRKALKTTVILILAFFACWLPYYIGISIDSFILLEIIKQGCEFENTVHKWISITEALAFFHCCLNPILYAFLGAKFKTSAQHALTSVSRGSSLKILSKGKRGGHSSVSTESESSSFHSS

Row | Binder | EC50 (M), cAMP assay, CHO-K1 cells transfected with human CXCR4
1 | B1 | 3.92e-08 M
2 | B2 | 2.43e-08 M
3 | B3 | 3.41e-08 M

Target: T1, human CXCR4 (chemokine (C-X-C motif) …)
Assay: cell-based or functional assay
Remark: another data set of the same source

Row | Binder | IC50 (M), Calcium Flux Activity (average of 3 experiments)
4 | B1 | 2.17e-09 M
5 | B4 | 2e-09 M
6 | B2 | 1.31e-09 M
7 | B3 | 1.36e-09 M
8 | B5 | 2.35e-09 M
9 | B6 | 1.69e-09 M

Each binder was assayed against T2, human CXCR4-enriched lipoparticles (LEV101, Integral Molecular) (human, UniProt P61073 1-352) (assay: biosensor kinetic titration, Fab over captured human CXCR4 lipoparticles).
T2 construct: Bought reagent; CXCR4 held in lipoparticles captured by biotinylated WGA on an SA chip; also called Lipoparticles containing CXCR4 proteins
T2 sequence (P61073 whole entry): as above
Procedure: The binding affinity of each Fab was determined using human CXCR4-enriched lipoparticles (LEV101, Integral Molecular, Philadelphia Pa.). Biotinylated WGA (Sigma Aldrich, St. Louis Mo.)) can be coated on the SA chip to facilitate capturing lipoparticles containing CXCR4 proteins. […] J. Mol. Recognit.

Row | Binder | Kd | koff | kon | t½
10 | B7 | 0.33 nM | 0.00049 s⁻¹ | 1.5e+06 M⁻¹ s⁻¹ | 23.5 min
11 | B8 | 1.9 nM | 0.003 s⁻¹ | 1.6e+06 M⁻¹ s⁻¹ | 3.9 min
12 | B9 | 0.35 nM | 0.0008 s⁻¹ | 2.3e+06 M⁻¹ s⁻¹ | 14.4 min
13 | B10 | 1.22 nM | 0.00143 s⁻¹ | 1.17e+06 M⁻¹ s⁻¹ | 8.08 min

Each binder was assayed against T1, human CXCR4 (chemokine (C-X-C motif) …) (assay: flow cytometry on HPB-ALL cells, Fab at 2.5 µg/ml).

Row | Binder | MFI
14 | B7 | 7020
15 | B8 | 2460
16 | B9 | 6240
17 | B10 | 4060

These binders were tested against T1, human CXCR4 (chemokine (C-X-C motif) …) (assay: flow cytometry on Raji cells, dilution series 0.007-267 nM).
Procedure: (§1) Binding was detected by 2nd Ab (Alexa Fluor 647-conjugated goat anti-human IgG, Fcgamma specific, Jackson ImmunoResearch Laboratories, West Grove Pa.) and acquired with LSRFortessa cell analyzer (BD Biosciences, San Jose Calif.). Curve fit and EC50 calculation was performed with Prism software (GraphPad Software, La Jolla Calif.). Tables 9A and 9B and FIGS. 3A and 3B.

Row | Binder | EC50
18 | B1 | 3.05 nM

The binders below were run against T3, cynomolgus CXCR4 (cynomolgus, UniProt Q28474 1-352) (assay: flow cytometry on HSC-F (cynomolgus T cell line) cells, dilution series 0.007-267 nM).
T3 construct: whole, on cells; On Cyno-CXCR4 transfected CHO cells and on HSC-F (cynomolgus T cell line); also called Cyno-CXCR4; CynoCXCR4
T3 sequence (Q28474 whole entry): as the sequence (P61073 whole entry) above, with M24I, N35H, K38R, R146K, N176S counted along it
Procedure: as §1

Row | Binder | EC50
19 | B1 | 2.58 nM

The binders below were run against T3, cynomolgus CXCR4 (assay: flow cytometry on Cyno-CXCR4 transfected CHO cells, dilution series 0.007-267 nM).
Procedure: as §1

Row | Binder | EC50
20 | B1 | 0.16 nM

The binders below were run against T1, human CXCR4 (chemokine (C-X-C motif) …) (assay: flow cytometry on HPB-ALL cells, Fab at 0.25 µg/ml).

Row | Binder | MFI
21 | B7 | 2670
22 | B8 | 563
23 | B9 | 2920
24 | B10 | 868

These binders were tested against T1, human CXCR4 (chemokine (C-X-C motif) …) (assay: flow cytometry on HPB-ALL cells, dilution series 0.007-267 nM).
Procedure: as §1

Row | Binder | EC50
25 | B1 | 0.27 nM

The binders below were run against T1, human CXCR4 (chemokine (C-X-C motif) …) (assay: flow cytometry on HPB-ALL cells, Fab at 0.25 µg/mL).
Procedure: Binding of CXCR4 Fabs to CXCR4-expressing cells were measured by flow cytometry on HPB-ALL (Human T cell leukemia) cells. 150,000 HPB-ALL cells were resuspended in 100 uL FACS buffer (1×PBS+0.5% BSA) on 96 well plates. […] After removing the primary antibodies the cells were washed twice with FACS buffer and then resuspended in FACS buffer and 2 uL (3 ug) of 2nd Ab (Alexa Fluor 647-conjugated goat anti-human IgG, F(ab′)2 specific, Jackson ImmunoResearch Laboratories, West Grove Pa.) was then added to each well. The plates were incubated at 4 degree for another 30 min. Fluorescence signals were acquired by cell analyzer LSRII (BD Biosciences, San Jose Calif.).

Row | Binder | MFI
26 | B7 | 2350
27 | B8 | 1360
28 | B9 | 2890
29 | B10 | 1340
